This is an account of results in US6156557A, “Alkaline protease from streptomyces sp. and method for preparing the same” (Toto Ltd., priority 1998, dated 2000).

The subject of one data set is alkaline protease. In kind it is biochemical, Streptomyces sp. TOTO-9305. The conditions noted are these: for Residual Activity: pH 9.
For data set [1] the following is noted: known alkaline proteases, values from References 1-3; cited from earlier work.
For data set [2] the following is noted: known alkaline proteases, values from References 1-3; cited from earlier work. This is another data set of the same source.
In data set [3] the test system is casein. Particulars: known alkaline proteases, values from References 1-3; cited from earlier work.
Data set [4] relates to casein. The conditions noted are these: known alkaline proteases, values from References 1-3; cited from earlier work. This is another data set of the same source.
Another data set concerns keratin. Particulars: known alkaline proteases, values from Reference 3; cited from earlier work.

In the case of `O=C(O)CN(CCN(CC(=O)O)CC(=O)O)CC(=O)O` [EDTA, ethylene-diaminetetraacetic acid], in the data set on alkaline protease, the “inhibition of the activity of the enzyme (in words)” value is “not inhibited” and the “Residual Activity” value is 91.
On the same counts, the results for `O=S(=O)(F)Cc1ccccc1` [PMSF, phenyl methanesulfonyl fluoride] are “inhibited” and 0.
On the same counts, the results for `O=C(O)c1cc[c]([Hg][Cl])cc1` [PCMB, p-chloromercuribenzoate] are “not inhibited” and 91.
For `O=C(O)CI` [Iodoacetic Acid, iodoacetic acid] the same measures were “not inhibited” and 96.
As for `CCCCCCCCCCCCOS(=O)(=O)[O-].[Na+]` [SDS, sodium dodecylsulfate], in the data set with alkaline protease, the “inhibition of the activity of the enzyme (in words)” value is “slightly inhibited” and the “Residual Activity” value turned out to be 74.

B1: Subtilisin B. subtilis: conventional alkaline protease, subtilisin of B. subtilis (protein, UniProt P04189 107-381, looked up)
Subtilisin E: AQSVPYGISQIKAPALHSQGYTGSNVKVAVIDSGIDSSHPDLNVRGGASFVPSETNPYQDGSSHGTHVAGTIAALNNSIGVLGVAPSASLYAVKVLDSTGSGQYSWIINGIEWAISNNMDVINMSLGGPTGSTALKTVVDKAVSSGIVVAAAAGNEGSSGSTSTVGYPAKYPSTIAVGAVNSSNQRASFSSAGSELDVMAPGVSIQSTLPGGTYGAYNGTSMATPHVAGAAALILSKHPTWTNAQVRDRLESTATYLGNSFYYGKGLINVQAAAQ
Regarding B1, the “Optimum Temp.” value in data set [1] was 55 °C. The “Isoelectric Point” value in data set [2] is on record as 7.5-8.0. Further, the “Specific Activity: Casein” value in the data set with casein [3] is 2,900 U/mg protein. Also, in the data set on casein [4], the “Optimum pH: Casein” value is recorded as 10.5.

B2: Subtilisin BPN^1: conventional alkaline protease, subtilisin BPN (protein, UniProt P00782 108-382, looked up)
Subtilisin BPN': AQSVPYGVSQIKAPALHSQGYTGSNVKVAVIDSGIDSSHPDLKVAGGASMVPSETNPFQDNNSHGTHVAGTVAALNNSIGVLGVAPSASLYAVKVLGADGSGQYSWIINGIEWAIANNMDVINMSLGGPSGSAALKAAVDKAVASGVVVVAAAGNEGTSGSSSTVGYPGKYPSVIAVGAVDSSNQRASFSSVGPELDVMAPGVSIQSTLPGNKYGAYNGTSMASPHVAGAAALILSKHPNWTNTQVRSSLENTTTKLGDSFYYGKGLINVQAAAQ
For B2, the “Specific Activity: Keratin” value in the data set on keratin is 436 U/mg protein. The “Isoelectric Point” value in data set [2] was 7.8. Also, the “Specific Activity: Casein” value in the data set on casein [3] was 2,200 U/mg protein. Further, in the data set with casein [4], the “Optimum pH: Casein” value is reported as 10.5.

B3: Subtilisin Carlsberg: conventional alkaline protease, subtilisin Carlsberg (protein, UniProt P00780 106-379, looked up)
Subtilisin Carlsberg: AQTVPYGIPLIKADKVQAQGFKGANVKVAVLDTGIQASHPDLNVVGGASFVAGEAYNTDGNGHGTHVAGTVAALDNTTGVLGVAPSVSLYAVKVLNSSGSGSYSGIVSGIEWATTNGMDVINMSLGGASGSTAMKQAVDNAYAKGVVVVAAAGNSGSSGNTNTIGYPAKYDSVIAVGAVDSNSNRASFSSVGAELEVMAPGAGVYSTYPTNTYATLNGTSMASPHVAGAAALILSKHPNLSASQVRNRLSSTATYLGSSFYYGKGLINVEAAAQ
With B3, the “Specific Activity: Keratin” value with keratin is on record as 888 U/mg protein. Also, the “Optimum Temp.” value in data set [1] is 50 °C. In data set [2], the “Isoelectric Point” value was 9.8. Besides, the “Specific Activity: Casein” value in the data set on casein [3] is reported as 6,500 U/mg protein. In addition, in the data set with casein [4], the “Optimum pH: Casein” value is given as 10.5.
